T1: Beclin 2 (human, full length) (human, UniProt A8MW95 1-431)
T1 construct: All tagged and endogenous human forms are kept under this one id; the form used is named under assay; also called BECN2; Flag-Beclin 2
T1 sequence: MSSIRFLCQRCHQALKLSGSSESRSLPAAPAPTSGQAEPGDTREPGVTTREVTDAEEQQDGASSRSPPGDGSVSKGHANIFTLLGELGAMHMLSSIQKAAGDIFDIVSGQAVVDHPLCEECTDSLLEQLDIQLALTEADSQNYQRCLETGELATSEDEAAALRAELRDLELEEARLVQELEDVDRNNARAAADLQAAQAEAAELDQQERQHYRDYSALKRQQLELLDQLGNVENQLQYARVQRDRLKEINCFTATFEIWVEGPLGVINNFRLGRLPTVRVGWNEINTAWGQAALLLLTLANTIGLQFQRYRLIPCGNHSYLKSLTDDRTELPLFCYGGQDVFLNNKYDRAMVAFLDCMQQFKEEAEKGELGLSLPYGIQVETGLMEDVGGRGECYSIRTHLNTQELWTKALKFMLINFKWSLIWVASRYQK

T2: AIM2 (human, full length) (human, UniProt O14862 1-343)
T2 construct: also called Flag-AIM2; GFP-AIM2
T2 sequence (looked up): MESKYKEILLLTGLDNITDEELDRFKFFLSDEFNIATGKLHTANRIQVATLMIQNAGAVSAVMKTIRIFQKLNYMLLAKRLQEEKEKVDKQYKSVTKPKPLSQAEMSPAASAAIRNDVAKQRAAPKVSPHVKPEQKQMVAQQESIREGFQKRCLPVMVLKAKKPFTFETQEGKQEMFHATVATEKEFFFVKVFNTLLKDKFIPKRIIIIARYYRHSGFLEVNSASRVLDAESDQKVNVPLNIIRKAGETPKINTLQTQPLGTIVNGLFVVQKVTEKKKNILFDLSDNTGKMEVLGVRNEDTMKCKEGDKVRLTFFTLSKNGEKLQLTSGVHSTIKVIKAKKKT

B1: VAMP8 (other, human, UniProt Q9BV40 1-100, looked up)
chain: MEEASEGGGNDRVRNLQSEVEGVKNIMTQNVERILARGENLEHLRNKTEDLEATSEHFKTTSQKVARKFWWKNVKMIVLICVIVFIIILFIVLFATGAFS
B2: Beclin 2/ECD (ECD domain alone) (other)
chain: INCFTATFEIWVEGPLGVINNFRLGRLPTVRVGWNEINTAWGQAALLLLTLANTIGLQFQRYRLIPCGNHSYLKSLTDDRTELPLFCYGGQDVFLNNKYDRAMVAFLDCMQQFKEEAEKGELGLSLPYGIQVETGLMEDVGGRGECYSIRTHLNTQELWTKALKFMLINFKWSLIWVASRYQK
notes: HA-tagged truncation
B3: STX8 (other, human, UniProt Q9UNK0 1-236, looked up)
chain: MAPDPWFSTYDSTCQIAQEIAEKIQQRNQYERKGEKAPKLTVTIRALLQNLKEKIALLKDLLLRAVSTHQITQLEGDRRQNLLDDLVTRERLLLASFKNEGAEPDLIRSSLMSEEAKRGAPNPWLFEEPEETRGLGFDEIRQQQQKIIQEQDAGLDALSSIISRQKQMGQEIGNELDEQNEIIDDLANLVENTDEKLRNETRRVNMVDRKSASCGMIMVILLLLVAIVVVAVWPTN
B4: RAB8A (other, human, UniProt P61006 1-207, looked up)
chain: MAKTYDYLFKLLLIGDSGVGKTCVLFRFSEDAFNSTFISTIGIDFKIRTIELDGKRIKLQIWDTAGQERFRTITTAYYRGAMGIMLVYDITNEKSFDNIRNWIRNIEEHASADVEKMILGNKCDVNDKRQVSKERGEKLALDYGIKFMETSAKANINVENAFFTLARDIKAKMDKKLEGNSPQGSNQGVKITPDQQKRSSFFRCVLL
B5: VAMP7 (other, human, UniProt P51809 1-220, looked up)
chain: MAILFAVVARGTTILAKHAWCGGNFLEVTEQILAKIPSENNKLTYSHGNYLFHYICQDRIVYLCITDDDFERSRAFNFLNEIKKRFQTTYGSRAQTALPYAMNSEFSSVLAAQLKHHSENKGLDKVMETQAQVDELKGIMVRNIDLVAQRGERLELLIDKTENLVDSSVTFKTTSRNLARAMCMKNLKLTIIIIIVSIVFIYIIVSPLCGGFTWPSCVKK
B6: STX7 (other, human, UniProt O15400 1-261, looked up)
chain: MSYTPGVGGDPAQLAQRISSNIQKITQCSVEIQRTLNQLGTPQDSPELRQQLQQKQQYTNQLAKETDKYIKEFGSLPTTPSEQRQRKIQKDRLVAEFTTSLTNFQKVQRQAAEREKEFVARVRASSRVSGSFPEDSSKERNLVSWESQTQPQVQVQDEEITEDDLRLIHERESSIRQLEADIMDINEIFKDLGMMIHEQGDVIDSIEANVENAEVHVQQANQQLSRAADYQRKSRKTLCIIILILVIGVAIISLIIWGLNH
B7: Beclin 2/ΔECD (ECD domain deletion fragment, residues 1-248) (other)
chain: MSSIRFLCQRCHQALKLSGSSESRSLPAAPAPTSGQAEPGDTREPGVTTREVTDAEEQQDGASSRSPPGDGSVSKGHANIFTLLGELGAMHMLSSIQKAAGDIFDIVSGQAVVDHPLCEECTDSLLEQLDIQLALTEADSQNYQRCLETGELATSEDEAAALRAELRDLELEEARLVQELEDVDRNNARAAADLQAAQAEAAELDQQERQHYRDYSALKRQQLELLDQLGNVENQLQYARVQRDRLKE
notes: HA-tagged truncation; also called Beclin 2/AECD
B8: STX6 (other, human, UniProt O43752 1-255, looked up)
chain: MSMEDPFFVVKGEVQKAVNTAQGLFQRWTELLQDPSTATREEIDWTTNELRNNLRSIEWDLEDLDETISIVEANPRKFNLDATELSIRKAFITSTRQVVRDMKDQMSTSSVQALAERKNRQALLGDSGSQNWSTGTTDKYGRLDRELQRANSHFIEEQQAQQQLIVEQQDEQLELVSGSIGVLKNMSQRIGGELEEQAVMLEDFSHELESTQSRLDNVMKKLAKVSHMTSDRRQWCAIAILFAVLLVVLILFLVL
notes: also called syntaxin 6

How the values were obtained:
[1] = target: T1, Beclin 2 (human, full length); assay: co-IP with anti-Flag beads and immunoblot; 293T cells co-transfected with HA-Beclin 2 and a Flag-tagged plasmid (FIG. 13C)
[2] = target: T2, AIM2 (human, full length); assay: co-IP with anti-Flag beads; HA-tagged Beclin 2 truncations co-transfected with Flag-AIM2 (FIG. 25K)
Experimental: (§1) Cell lysates were immunoprecipitated with anti-Flag beads and immunoblotted using indicated antibodies. […] Cell lysates were immunoprecipitated with anti-Flag beads and immunoblotted using indicated antibodies.
(§2) Whole cell lysates obtained 24 h post-transfection or via ligand stimulation were obtained using RIPA lysis buffer and shook on ice for 15 min. The HEK293T cell lysates were immunoprecipitated with anti-Flag conjugated beads (BioLegend) at 4° C. overnight.

[3] = target: T3, NLRP3 (human, full length) (human, UniProt Q96P20 1-1036, limits assumed); assay: co-IP with anti-Flag beads; HA-tagged Beclin 2 truncations co-transfected with Flag-NLRP3 (FIG. 25L)
T3 construct: also called Flag-NLRP3; HA-NLRP3
Experimental: as §1, §2

[4] = target: T1, Beclin 2 (human, full length); assay: co-IP with anti-Flag beads and immunoblot; HEK293T cells co-transfected with HA-Beclin 2 and Flag-tagged SNARE or RAB proteins (FIG. 32A)
Experimental: Whole cell lysates obtained 24 h post-transfection or via ligand stimulation were obtained using RIPA lysis buffer and shook on ice for 15 min. The HEK293T cell lysates were immunoprecipitated with anti-Flag conjugated beads (BioLegend) at 4° C. overnight. […] The beads were washed five times with RIPA lysis buffer, and immunoprecipitates were eluted with 2×SDS loading buffer and subjected to SDS-PAGE gel electrophoresis, followed by immunoblotting. The secondary antibody (Veriblot for IP detection, HRP-conjugated) that only recognized native IgG but not denatured IgG was applied for immunoblotting of endogenous proteins in immunoprecipitates.

T3 sequence (Q96P20 whole entry, the tested form may be a part): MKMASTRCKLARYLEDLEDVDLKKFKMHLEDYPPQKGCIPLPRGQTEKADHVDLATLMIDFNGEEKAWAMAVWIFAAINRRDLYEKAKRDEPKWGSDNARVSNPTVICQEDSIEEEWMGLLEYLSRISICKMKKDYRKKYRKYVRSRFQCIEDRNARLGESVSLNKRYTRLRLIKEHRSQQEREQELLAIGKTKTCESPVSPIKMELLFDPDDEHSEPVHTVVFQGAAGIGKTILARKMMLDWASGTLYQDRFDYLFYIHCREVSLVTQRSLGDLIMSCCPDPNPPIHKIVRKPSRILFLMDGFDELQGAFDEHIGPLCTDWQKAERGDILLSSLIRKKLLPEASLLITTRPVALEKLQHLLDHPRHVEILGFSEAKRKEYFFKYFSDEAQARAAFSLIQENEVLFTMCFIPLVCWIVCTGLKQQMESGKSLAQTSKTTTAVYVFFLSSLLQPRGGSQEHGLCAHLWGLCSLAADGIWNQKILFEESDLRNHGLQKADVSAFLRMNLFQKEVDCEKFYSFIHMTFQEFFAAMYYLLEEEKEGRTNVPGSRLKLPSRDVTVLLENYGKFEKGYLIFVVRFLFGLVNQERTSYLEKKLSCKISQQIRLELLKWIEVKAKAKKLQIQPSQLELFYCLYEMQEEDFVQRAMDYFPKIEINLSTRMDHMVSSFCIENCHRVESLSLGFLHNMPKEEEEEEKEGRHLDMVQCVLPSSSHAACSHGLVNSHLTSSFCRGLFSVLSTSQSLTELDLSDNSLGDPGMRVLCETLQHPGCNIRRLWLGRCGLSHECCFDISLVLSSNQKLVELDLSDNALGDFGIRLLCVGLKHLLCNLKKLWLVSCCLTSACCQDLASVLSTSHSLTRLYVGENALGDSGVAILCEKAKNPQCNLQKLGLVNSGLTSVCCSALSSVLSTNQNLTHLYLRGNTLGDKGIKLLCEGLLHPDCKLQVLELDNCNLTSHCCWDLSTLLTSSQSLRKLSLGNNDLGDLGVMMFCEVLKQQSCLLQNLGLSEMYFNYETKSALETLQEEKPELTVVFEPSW

Binder | binding result [1] | further results
B1 | binds | 
B2 |  | binding result [2]: no binding; binding result [3]: no binding
B3 | binds | 
B4 | binds | 
B5 |  | binding result [4]: binds
B6 | binds | 
B7 |  | binding result [2]: no binding; binding result [3]: no binding
B8 | binds | 
